B1: scFv; the commonest letter at each place (parent)
chain 1: EVKLDETGGGLVQPGRPMKLSCVASGFTFSDYWMNWVRQSPEKGLEWVAQIRNKPYNYETYYSDSVKGRFTISRDDSKSSVYLQMNNLRVEDMGIYYCTGSYYGMDYWGQGTSVTVS
chain 2: DVVMTQTPLSLPVSLGDQASISCRSSQSLVHSNGNTYLRWYLQKPGQSPKVLIYKVSNRFSGVPDRFSGSGSGTDFTLKISRVEAEDLGVYFCSQSTHVPWTFGGGTKLEIK

Legend:
[1] = variants of: B1; assay: Kd (Tite-Seq); conditions: with fluorescein; format: scFv 4-4-20, heavy + light
[2] = variants of: B1; assay: yeast surface expression (ratio to wild type); higher = more expressed; conditions: format: scFv 4-4-20, heavy + light

Row | Kd [1] [µM] | Variant | yeast surface expression [2]
1 | 0.000962 | chain 1 S30E | 0.948
2 | 0.000803 | chain 1 S30A | 1.08
3 | ≥ 10 | chain 1 G100I Y103H | 0.94
4 | ≥ 10 | chain 1 G100A S101F | 0.652
5 | 0.000891 | chain 1 T28L S30R | 0.99
6 | ≥ 10 | chain 1 S101W Y107T | 0.42
7 | ≥ 10 | chain 1 G104F G109W | 0.0981
8 | ≥ 10 | chain 1 G100E G109Y | 0.199
9 | 1.91 | chain 1 Y107L | 1.01
10 | 0.00194 | chain 1 F29Y V37I | 0.9
11 | 0.195 | chain 1 Y32P N35K | 0.466
12 | ≥ 10 | chain 1 M34P W36L | 0.216
13 | ≥ 10 | chain 1 W36T V37D | 0.28
14 | ≥ 10 | chain 1 Y32A M34E V37C | 0.299
15 | ≥ 10 | chain 1 S30Q V37E | 0.892
16 | ≥ 10 | chain 1 Y102Q D106Y | 0.268
17 | ≥ 10 | chain 1 S101W G109V | 0.224
18 | ≥ 10 | chain 1 Y102G G104H | 1.06
19 | ≥ 10 | chain 1 F29G N35I | 0.645
20 | ≥ 10 | chain 1 S101D D106C W108N | 0.369
21 | ≥ 10 | chain 1 S101V D106I Y107C | 0.165
22 | ≥ 10 | chain 1 F29E M34E | 0.455
23 | ≥ 10 | chain 1 D31V | 0.515
24 | 0.0747 | chain 1 D31C | 0.608

Row | Kd [1] [µM] | Variant | yeast surface expression [2]
25 | ≥ 10 | chain 1 G100Y Y107T | 0.388
26 | ≥ 10 | chain 1 W33M M34H N35K | 0.305
27 | ≥ 10 | chain 1 Y103A W108D | 0.576
28 | ≥ 10 | chain 1 D31S M34G | 0.543
29 | ≥ 10 | chain 1 D31S M34R | 0.424
30 | ≥ 10 | chain 1 F29N W36H | 0.279
31 | 0.00135 | chain 1 T28K S30I | 0.889
32 | ≥ 10 | chain 1 G104E G109C | 0.21
33 | ≥ 10 | chain 1 N35H W36L | 0.718
34 | ≥ 10 | chain 1 Y103W G104P | 1
35 | ≥ 10 | chain 1 F29T M34K | 0.35
36 | ≥ 10 | chain 1 Y107R W108N | 0.495
37 | 3.55 | chain 1 V37K | 0.351
38 | 7.72 | chain 1 V37H | 0.831
39 | 0.0434 | chain 1 V37A | 0.784
40 | 0.00468 | chain 1 M34F W36Y | 0.948
41 | ≥ 10 | chain 1 Y102M M105K D106W | 0.527
42 | ≥ 10 | chain 1 F29M W36V | 0.782
43 | 0.0102 | chain 1 T28L V37Q | 0.731
44 | 0.0113 | chain 1 M105F W108Y | 0.656
45 | ≥ 10 | chain 1 D31F N35S | 0.367
46 | ≥ 10 | chain 1 W33S W36I | 0.619
47 | ≥ 10 | chain 1 W33S W36D | 0.562
48 | ≥ 10 | chain 1 W33N N35M | 0.792

Row | Kd [1] [µM] | Variant | yeast surface expression [2]
49 | ≥ 10 | chain 1 S101I Y102V | 0.488
50 | 0.00708 | chain 1 T28M S30W | 0.645
51 | ≥ 10 | chain 1 G100W S101E | 0.429
52 | 0.0944 | chain 1 D31R Y32A | 0.863
53 | 0.00746 | chain 1 F29M D31T | 0.848
54 | ≥ 10 | chain 1 G100N Y102Q | 0.746
55 | ≥ 10 | chain 1 S101F W108S G109S | 0.242
56 | 0.195 | chain 1 D31V M34R | 0.17
57 | ≥ 10 | chain 1 W33T W36Y | 0.79
58 | ≥ 10 | chain 1 G100R M105Y W108P | 0.298
59 | ≥ 10 | chain 1 S101R G104P | 0.361
60 | ≥ 10 | chain 1 G100H W108D | 0.321
61 | 0.00746 | chain 1 G100H W108F | 0.392
62 | ≥ 10 | chain 1 S101R G109Q | 0.201
63 | 0.522 | chain 1 Y102V M105N | 1.01
64 | 1.63 | chain 1 Y102V M105Q | 0.736
65 | ≥ 10 | chain 1 S30I N35P | 0.35
66 | ≥ 10 | chain 1 D31L Y32M | 0.772
67 | ≥ 10 | chain 1 G100P G109A | 0.3
68 | ≥ 10 | chain 1 Y103C G109D | 0.356
69 | ≥ 10 | chain 1 S30T W33V | 0.899
70 | ≥ 10 | chain 1 W33R V37W | 0.543
71 | ≥ 10 | chain 1 G104Q G109Q | 0.248
72 | ≥ 10 | chain 1 G104Q G109T | 0.272

Row | Kd [1] [µM] | Variant | yeast surface expression [2]
73 | ≥ 10 | chain 1 S101M Y103D | 0.917
74 | ≥ 10 | chain 1 N35F W36Q | 0.38
75 | 0.0692 | chain 1 T28H S30N Y32M | 1.01
76 | 0.00575 | chain 1 T28Q D31A | 0.845
77 | ≥ 10 | chain 1 D31M Y32N | 0.536
78 | ≥ 10 | chain 1 D106I G109C | 0.203
79 | 5.66 | chain 1 T28P Y32R | 1.09
80 | 0.0808 | chain 1 M105Q D106S | 1.17
81 | ≥ 10 | chain 1 T28K N35M V37L | 0.642
82 | ≥ 10 | chain 1 G104N D106W | 0.316
83 | ≥ 10 | chain 1 Y32G N35V | 0.513
84 | 0.0692 | chain 1 T28Y M34W | 0.6
85 | ≥ 10 | chain 1 N35S W36Y | 0.787
86 | ≥ 10 | chain 1 Y102G M105C | 0.828
87 | ≥ 10 | chain 1 G100F D106K | 0.653
88 | ≥ 10 | chain 1 D31F Y32V N35C | 0.0993
89 | ≥ 10 | chain 1 F29D W33V | 0.87
90 | 0.00361 | chain 1 D106N Y107F | 0.715
91 | 5.37 | chain 1 M34G N35P | 0.778
92 | ≥ 10 | chain 1 D106N G109K | 0.277
93 | ≥ 10 | chain 1 G100S M105Q D106N | 0.522
94 | 0.345 | chain 1 W33K V37L | 0.761
95 | ≥ 10 | chain 1 Y102P G104S M105H | 0.325
96 | ≥ 10 | chain 1 Y32W N35T | 0.786

Row | Kd [1] [µM] | Variant | yeast surface expression [2]
97 | ≥ 10 | chain 1 N35R W36P | 0.809
98 | ≥ 10 | chain 1 Y102T Y103R | 1.21
99 | ≥ 10 | chain 1 Y107F W108E | 0.411
100 | ≥ 10 | chain 1 G100Q W108R | 0.232
101 | ≥ 10 | chain 1 G100P | 0.758
102 | ≥ 10 | chain 1 T28W N35H | 0.727
103 | 0.0189 | chain 1 S30H Y32R V37Q | 1.99
104 | ≥ 10 | chain 1 D31M M34K | 0.564
105 | ≥ 10 | chain 1 W33Q W36V | 0.361
106 | ≥ 10 | chain 1 Y103Q G104N | 0.905
107 | ≥ 10 | chain 1 M105R G109T | 0.344
108 | 0.0119 | chain 1 F29Q | 0.989
109 | 0.00251 | chain 1 F29M | 1.21
110 | ≥ 10 | chain 1 Y32T V37E | 0.222
111 | ≥ 10 | chain 1 D106V | 0.734
112 | ≥ 10 | chain 1 D106W | 0.339
113 | ≥ 10 | chain 1 Y102E D106M | 0.531
114 | ≥ 10 | chain 1 Y103E M105I | 0.9
115 | 4.14 | chain 1 S30F M34C | 0.514
116 | 0.000688 | chain 1 Y107V W108Y | 0.724
